{"source": "patent US20150211000A1", "about": "(GLYCOFI, published 2015)", "binders": {"B1": {"name": "anti-CD20 (Genmab) Fab fragment, heavy chain fused to GR1 coiled coil peptide, displayed on Pichia pastoris strain YGLY7761 (Fab, V domains shown)", "VH": "AVQLVESGGGLVQPGRSLRLSCAASGFTFGDYTMHWVRQAPGKGLEWVSGISWNSGSIGYADSVKGRFTISRDNAKNSLYLQMNSLRAEDTALYYCTKDNQYGSGSTYGLGVWGQGTLVTVSS", "VL": "EIVLTQSPATLSLSPGERATLSCRASQSVSSYLAWYQQKPGQAPRLLIYDASNRATGIPARFSGSGSGTDFTLTISSLEPEDFAVYYCQQRSNWPLTFGGGTKVEIKR", "notes": "also called α-CD20; anti-CD20 Fab fragment Genmab; not shown: linker and tags of vector pGLY3958 between CH1 and GR1"}}, "target": "T1, PCSK9 (Proprotein convertase subtilisin/kexin type 9) antigen, Alexa 647-conjugated (Pan troglodytes (Chimpanzee); Homo …, UniProt A8T644 31-152; Q8NBP7 153-692, Alexa 647-conjugated)", "T1 construct": "also called fluorophore-conjugated PCSK9 antigen; fluorophore-labeled PCSK-9 antigen", "T1 sequence (A8T644 31-152 limits assumed, chain 1 of 2)": "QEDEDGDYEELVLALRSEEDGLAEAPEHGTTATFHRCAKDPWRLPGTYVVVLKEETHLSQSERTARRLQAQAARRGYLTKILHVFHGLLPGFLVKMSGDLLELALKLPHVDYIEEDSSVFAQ", "T1 sequence (A8T644 other isoform, or with tags, fused parts or gaps limits assumed, chain 2 of 2)": "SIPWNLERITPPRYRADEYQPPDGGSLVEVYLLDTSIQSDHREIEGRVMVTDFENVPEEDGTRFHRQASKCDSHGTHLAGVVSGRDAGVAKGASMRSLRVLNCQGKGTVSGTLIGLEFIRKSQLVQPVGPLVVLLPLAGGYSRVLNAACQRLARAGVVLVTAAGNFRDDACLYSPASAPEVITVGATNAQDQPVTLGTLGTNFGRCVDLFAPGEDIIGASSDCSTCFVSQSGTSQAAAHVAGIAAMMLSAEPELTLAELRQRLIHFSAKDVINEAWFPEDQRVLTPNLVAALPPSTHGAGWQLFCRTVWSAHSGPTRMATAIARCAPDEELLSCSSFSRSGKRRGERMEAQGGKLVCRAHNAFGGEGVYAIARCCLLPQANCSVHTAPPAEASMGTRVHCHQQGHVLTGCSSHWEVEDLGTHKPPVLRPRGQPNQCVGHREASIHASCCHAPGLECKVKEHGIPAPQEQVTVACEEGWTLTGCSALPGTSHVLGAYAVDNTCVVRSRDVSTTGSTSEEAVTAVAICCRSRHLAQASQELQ", "assay": "flow cytometry / FACS of Fab-displaying Pichia pastoris labeled with Alexa 647-conjugated PCSK9"}
{"binder": "B1", "values": [{"measurement": "binding result", "result": "no binding"}]}
